The source of these data is article PMC7898468, “TrkA-mediated endocytosis of p75-CTF prevents cholinergic neuron death upon γ-secretase inhibition” (Life Science Alliance, 2021).

Usually stoichiometry N stands for the number of molecules, sites or subunits per partner or assembly.

Data set [1] addresses HA-p75-CTF (truncated p75NTR construct that mimics the endogenously generated C-terminal fragment), wild type (UniProt P07174). Briefly: non-reducing SDS-PAGE and Western blot; total membranes (and lysates) of HeLa cells transfected with p75-CTF constructs, 16 h with or without 10 uM compound E; sample buffer with 1% beta-mercaptoethanol keeps the C257 disulfide dimers; anti-p75NTR blot; shows only SDS-resistant disulfide dimers. On the technique in general: Immunoblotting shows a protein as a band on a membrane.

Data set [2] concerns the target endogenous p75-CTF of mouse dorsal root ganglia neurons (mouse (endogenous in dorsal root ganglia)). Description: non-reducing SDS-PAGE and Western blot; lysate of dorsal root ganglia from P2 mice, 24 h at 37 C with or without compound E (10 uM).
Data set [3] concerns the molecule itself. Description: SDS-PAGE and Western blot with or without DTT; purified C101-p75-3xFLAG substrates, with or without DTT (20 mM), anti-FLAG blot.

As for “HA-p75-CTF (truncated p75NTR construct that mimics the endogenously generated C-terminal fragment), wild type (from UniProt P07174 245-425) (domain or fragment)”, the stoichiometry N in data set [1] turned out to be 2.
In data set [2], “endogenous p75-CTF of mouse dorsal root ganglia neurons (domain or fragment)” gave a stoichiometry N of 2.

B1: C101-p75-wt-3xFlag (domain or fragment, rat)
chain: MVTTVMGSSQPVVTRGTTDNLIPVYCSILAAVVVGLVAYIAFKRWNSCKQNKQGANSRPVNQTPPPEGEKLHSDSGISVDSQSLHDQQTHTQTASGQALKG
notes: rat p75NTR, transmembrane domain and juxtamembrane region; Forms DTT-sensitive disulfide dimers; also called p75-C101-wt; C101-wt; source: COS1, transiently transfected, purified (anti-FLAG M2 agarose); not shown: 3xFLAG, C-terminal, kept
With B1, the “stoichiometry N” value in data set [3] is 2.
